Results: article PMC11615309 (Nature Communications, 2024)

Target: T1, 6xHis-tagged FAT1 cadherin #28-33 (3024-3789 aa) (UniProt Q14517 3024-3789)
T1 sequence: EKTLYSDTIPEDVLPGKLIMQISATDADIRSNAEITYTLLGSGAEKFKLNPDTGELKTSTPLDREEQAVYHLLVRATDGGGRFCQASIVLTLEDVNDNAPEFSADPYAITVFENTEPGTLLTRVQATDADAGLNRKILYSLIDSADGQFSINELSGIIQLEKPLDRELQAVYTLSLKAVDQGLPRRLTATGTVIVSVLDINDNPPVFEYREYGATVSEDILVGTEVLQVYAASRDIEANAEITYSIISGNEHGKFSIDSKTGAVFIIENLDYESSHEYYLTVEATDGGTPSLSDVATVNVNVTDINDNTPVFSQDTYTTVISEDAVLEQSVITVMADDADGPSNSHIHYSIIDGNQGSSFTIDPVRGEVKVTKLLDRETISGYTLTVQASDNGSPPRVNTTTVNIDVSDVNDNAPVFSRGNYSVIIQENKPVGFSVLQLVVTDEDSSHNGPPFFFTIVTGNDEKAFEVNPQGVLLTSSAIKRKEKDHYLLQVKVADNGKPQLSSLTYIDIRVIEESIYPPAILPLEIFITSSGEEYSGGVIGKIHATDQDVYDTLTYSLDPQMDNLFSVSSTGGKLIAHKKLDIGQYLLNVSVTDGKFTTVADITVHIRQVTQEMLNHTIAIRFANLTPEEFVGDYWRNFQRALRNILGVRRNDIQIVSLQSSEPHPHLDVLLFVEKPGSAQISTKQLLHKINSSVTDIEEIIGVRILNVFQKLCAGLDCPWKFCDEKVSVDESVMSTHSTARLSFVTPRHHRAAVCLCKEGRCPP
Assay: pull-down

B1: GST-OLFM4 (OLFM4 without signal peptide) (domain or fragment)
chain: not shown
B1: binds.
